Results on two molecules are retold here after patent publication EP4803149A2 (Lyvgen Biopharma Holdings Limited, dated 2026).

This test has as its target CD3 (human). The test can be described thus: ELISA or FCM (as in Example 2).

B1: Ly1966 (multi-specific antibody)
chain 1: QVQLQQSGAELVRPGSSVKISCKASGYAFSSYWMNWVKQRPGQGLEWIGQIWPGDGDTNYNGKFKGKATLTADESSSTAYMQLSSLASEDSAVYFCARRETTTVGRYYYAMDYWGQGTTVTVSSASTKGPSVFPLAPSSKSTSGGTAALGCLVKDYFPEPVTVSWNSGALTSGVHTFPAVLQSSGLYSLSSVVTVPSSSLGTQTYICNVNHKPSNTKVDKKVEPKSCGGGGSGGGGSGGGGSGGGGSEVQLVESGGGLVQPGGSLRLSCAASGFTFSTYAMNWVRQAPGKGLEWVGRIRSKYNNYATYYADSVKGRFTISRDDSKNSLYLQMNSLKTEDTAVYYCVRHGNFGNSYVSWFAYWGQGTLVTVSSGGGGSDKTHTCPPCPAPEAAGPSVFLFPPKPKDTLMISRTPEVTCVVVDVSHEDPEVKFNWYVDGVEVHNAKTKPREEQYNSTYRVVSVLTVLHQDWLNGKEYKCKVSNKALPAPIEKTISKAKGQPREPQVYTLPPSREEMTKNQVSLWCLVKGFYPSDIAVEWESNGQPENNYKTTPPVLDSDGSFFLYSKLTVDKSRWQQGNVFSCSVMHEALHNHYTQKSLSLSPGGGGGSGGGGSGGGGSGGGGSQVQLVQSGAEVKKPGASVKVSCKASGYTFAGFEMHWVRQAPGQGLEWMGAIDPKTGGTDYNQKFKDRVTMTRDTSISTAYMELSRLRSDDTAVYYCARDLGYFDVWGQGTLVTVSS
chain 2: QVQLQQSGAELVRPGSSVKISCKASGYAFSSYWMNWVKQRPGQGLEWIGQIWPGDGDTNYNGKFKGKATLTADESSSTAYMQLSSLASEDSAVYFCARRETTTVGRYYYAMDYWGQGTTVTVSSASTKGPSVFPLAPSSKSTSGGTAALGCLVKDYFPEPVTVSWNSGALTSGVHTFPAVLQSSGLYSLSSVVTVPSSSLGTQTYICNVNHKPSNTKVDKKVEPKSCGGGGSGGGGSGGGGSGGGGSQAVVTQEPSLTVSPGGTVTLTCRSSTGAVTTSNYANWVQQKPGQAPRGLIGGTNKRAPWTPARFSGSLLGGKAALTITGAQAEDEADYYCALWYSNLWVFGGGTKLTVLGGGGSDKTHTCPPCPAPEAAGPSVFLFPPKPKDTLMISRTPEVTCVVVDVSHEDPEVKFNWYVDGVEVHNAKTKPREEQYNSTYRVVSVLTVLHQDWLNGKEYKCKVSNKALPAPIEKTISKAKGQPREPQVYTLPPSREEMTKNQVSLSCAVKGFYPSDIAVEWESNGQPENNYKTTPPVLDSDGSFFLVSKLTVDKSRWQQGNVFSCSVMHEALHNRFTQKSLSLSPGGGGGSGGGGSGGGGSGGGGSDIQMTQSPSSLSASVGDRVTITCRASQDIRSNLNWYQQKPGGAVKLLIYYTSRLHSGVPSRFSGSGSGTDYTLTISSLQPEDFATYFCQQSEKLPRTFGGGTKVEIR
chain 3: not shown
notes: CD19/CD3/CD137
Regarding B1, a half-maximal effect (EC50) was put at 0.348 µg/mL.

B2: Ly1967 (multi-specific antibody)
chain 1: QVQLQQSGAELVRPGSSVKISCKASGYAFSSYWMNWVKQRPGQGLEWIGQIWPGDGDTNYNGKFKGKATLTADESSSTAYMQLSSLASEDSAVYFCARRETTTVGRYYYAMDYWGQGTTVTVSSASTKGPSVFPLAPSSKSTSGGTAALGCLVKDYFPEPVTVSWNSGALTSGVHTFPAVLQSSGLYSLSSVVTVPSSSLGTQTYICNVNHKPSNTKVDKKVEPKSCGGGGSGGGGSGGGGSGGGGSEVQLVESGGGLVQPGGSLRLSCAASGFTFSTYAMNWVRQAPGKGLEWVGRIRSKYNNYATYYADSVKGRFTISRDDSKNSLYLQMNSLKTEDTAVYYCVRHGNFGNSYVSWFAYWGQGTLVTVSSGGGGSDKTHTCPPCPAPEAAGPSVFLFPPKPKDTLMISRTPEVTCVVVDVSHEDPEVKFNWYVDGVEVHNAKTKPREEQYNSTYRVVSVLTVLHQDWLNGKEYKCKVSNKALPAPIEKTISKAKGQPREPQVYTLPPSREEMTKNQVSLWCLVKGFYPSDIAVEWESNGQPENNYKTTPPVLDSDGSFFLYSKLTVDKSRWQQGNVFSCSVMHEALHNHYTQKSLSLSPGGGGGSGGGGSGGGGSGGGGSQVQLVQSGAEVKKPGASVKVSCKASGYTFAGFEMHWVRQAPGQGLEWMGAIDPKTGGTDYNQKFKDRVTMTRDTSISTAYMELSRLRSDDTAVYYCARDLGYFDVWGQGTLVTVSS
chain 2: QVQLQQSGAELVRPGSSVKISCKASGYAFSSYWMNWVKQRPGQGLEWIGQIWPGDGDTNYNGKFKGKATLTADESSSTAYMQLSSLASEDSAVYFCARRETTTVGRYYYAMDYWGQGTTVTVSSASTKGPSVFPLAPSSKSTSGGTAALGCLVKDYFPEPVTVSWNSGALTSGVHTFPAVLQSSGLYSLSSVVTVPSSSLGTQTYICNVNHKPSNTKVDKKVEPKSCGGGGSGGGGSGGGGSGGGGSQAVVTQEPSLTVSPGGTVTLTCRSSTGAVTTSNYANWVQQKPGQAPRGLIGGTNKRAPWTPARFSGSLLGGKAALTITGAQAEDEADYYCALWYSNLWVFGGGTKLTVLGGGGSDKTHTCPPCPAPEAAGPSVFLFPPKPKDTLMISRTPEVTCVVVDVSHEDPEVKFNWYVDGVEVHNAKTKPREEQYNSTYRVVSVLTVLHQDWLNGKEYKCKVSNKALPAPIEKTISKAKGQPREPQVYTLPPSREEMTKNQVSLSCAVKGFYPSDIAVEWESNGQPENNYKTTPPVLDSDGSFFLVSKLTVDKSRWQQGNVFSCSVMHEALHNHYTQKSLSLSPGGGGGSGGGGSGGGGSGGGGSDIQMTQSPSSLSASVGDRVTITCRASQDIRSNLNWYQQKPGGAVKLLIYYTSRLHSGVPSRFSGSGSGTDYTLTISSLQPEDFATYFCQQSEKLPRTFGGGTKVEIR
chain 3: not shown
notes: CD19/CD3/CD137 multi-specific
Molecule B2 came in with an EC50 of 1.56 µg/mL.
